In PMC2111872:

B1: chicken erythrocyte histone H5 (natural protein)
chain: MTESLVLSPAPAKPKRVKASRRSASHPTYSEMIAAAIRAEKSRGGSSRQSIQKYIKSHYKVGHNADLQIKLSIRRLLAAGVLKQTKGVGASGSFRLAKSDKAKRSPGKKKKAVRRSTSPKKAARPRKARSPAKKPKATARKARKKSRASPKKAKKPKTVKAKSRKASKAKKVKRSKPRAKSGARKSPKKK

biological target: H1- and H5-depleted chicken erythrocyte chromatin (DNA-core histone complex) (chicken (endogenous in erythrocytes)); assay: co-sedimentation

| stoichiometry N (linker histone molecules per nucleosome) | Molecule |
| --- | --- |
| 2 | calf thymus histone H1 (from UniProt P02253 1-213) (natural protein) |
| 2 | chicken erythrocyte histone H1 (from UniProt P09987 1-218) (natural protein) |
| 2 | B1 |
